# Assay results published in paper PMC3413700.
# Tested on: Irr (Rhodobacter sphaeroides 2.4.1)
# Test: EMSA
# Settings: Mn2+ favored complex formation (1 mM MnCl2); Mn2+ in Kd assay not stated; EMSA: 20 mM TB pH 7.8, 5% glycerol, 1 mM DTT, 1 ug salmon sperm DNA, 0.1 mg/ml BSA, with or without 1 mM MnCl2, 15 ul, ~3 fmol probe, 30 min at 32 C; 6% PAGE …
row,Substance,Kd [µM]
1,ccpA upstream region,0.9
2,mbfA upstream region,0.8
